PMC4607316 (Nature, 2015)

biological target: syntaxin-1A (endogenous, cultured mouse neurons) (mouse (endogenous in cultured …, UniProt O35526 1-288)); assay: co-IP
Sequence (O35526 whole entry): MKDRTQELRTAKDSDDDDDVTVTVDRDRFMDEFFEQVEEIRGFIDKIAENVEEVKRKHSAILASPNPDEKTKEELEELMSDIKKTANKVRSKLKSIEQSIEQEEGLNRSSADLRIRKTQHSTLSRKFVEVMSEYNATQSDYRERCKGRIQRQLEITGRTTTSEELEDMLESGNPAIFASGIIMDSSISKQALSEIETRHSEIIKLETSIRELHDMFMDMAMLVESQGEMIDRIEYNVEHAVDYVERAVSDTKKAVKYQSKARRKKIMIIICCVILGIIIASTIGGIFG

| Binder | reduction of co-immunoprecipitated Syt1 against Syt1 WT [%] |
| --- | --- |
| Syt1 E295A, Y338W (natural protein, rat, UniProt P21707 1-421, looked up) MVSASHPEALAAPVTTVATLVPHNATEPASPGEGKEDAFSKLKQKFMNELHKIPLPPWALIAIAIVAVLLVVTCCFCVCKKCLFKKKNKKKGKEKGGKNAINMKDVKDLGKTMKDQALKDDDAETGLTDGEEKEEPKEEEKLGKLQYSLDYDFQNNQLLVGIIQAAELPALDMGGTSDPYVKVFLLPDKKKKFETKVHRKTLNPVFNEQFTFKVPYSELGGKTLVMAVYDFDRFSKHDIIGEFKVPMNTVDFGHVTEEWRDLQSAEKEEQEKLGDICFSLRYVPTAGKLTVVILAAKNLKKMDVGGLSDPYVKIHLMQNGKRLKKKKTTIKKNTLNPWYNESFSFEVPFEQIQKVQVVVTVLDYDKIGKNDAIGKVFVGYNSTGAELRHWSDMLANPRRPIAQWHTLQVEEEVDAMLAVKK | ~50 |
| Syt1 R281A, R398A, R399A (natural protein, rat, UniProt P21707 1-421, looked up) MVSASHPEALAAPVTTVATLVPHNATEPASPGEGKEDAFSKLKQKFMNELHKIPLPPWALIAIAIVAVLLVVTCCFCVCKKCLFKKKNKKKGKEKGGKNAINMKDVKDLGKTMKDQALKDDDAETGLTDGEEKEEPKEEEKLGKLQYSLDYDFQNNQLLVGIIQAAELPALDMGGTSDPYVKVFLLPDKKKKFETKVHRKTLNPVFNEQFTFKVPYSELGGKTLVMAVYDFDRFSKHDIIGEFKVPMNTVDFGHVTEEWRDLQSAEKEEQEKLGDICFSLAYVPTAGKLTVVILEAKNLKKMDVGGLSDPYVKIHLMQNGKRLKKKKTTIKKNTLNPYYNESFSFEVPFEQIQKVQVVVTVLDYDKIGKNDAIGKVFVGYNSTGAELRHWSDMLANPAAPIAQWHTLQVEEEVDAMLAVKK | ~50 |
| Syt1 R398Q, R399Q (natural protein, rat, UniProt P21707 1-421, looked up) MVSASHPEALAAPVTTVATLVPHNATEPASPGEGKEDAFSKLKQKFMNELHKIPLPPWALIAIAIVAVLLVVTCCFCVCKKCLFKKKNKKKGKEKGGKNAINMKDVKDLGKTMKDQALKDDDAETGLTDGEEKEEPKEEEKLGKLQYSLDYDFQNNQLLVGIIQAAELPALDMGGTSDPYVKVFLLPDKKKKFETKVHRKTLNPVFNEQFTFKVPYSELGGKTLVMAVYDFDRFSKHDIIGEFKVPMNTVDFGHVTEEWRDLQSAEKEEQEKLGDICFSLRYVPTAGKLTVVILEAKNLKKMDVGGLSDPYVKIHLMQNGKRLKKKKTTIKKNTLNPYYNESFSFEVPFEQIQKVQVVVTVLDYDKIGKNDAIGKVFVGYNSTGAELRHWSDMLANPQQPIAQWHTLQVEEEVDAMLAVKK | ~50 |
